Laboratory results: IntAct's records for PubMed 25910212

B1: Emerin (Homo sapiens), P50402 (parent)
chain: MDNYADLSDTELTTLLRRYNIPHGPVVGSTRRLYEKKIFEYETQRRRLSPPSSSAASSYSFSDLNSTRGDADMYDLPKKEDALLYQSKGYNDDYYEESYFTTRTYGEPESAGPSRAVRQSVTSFPDADAFHHQVHDDDLLSSSEEECKDRERPMYGRDSAYQSITHYRPVSASRSSLDLSYYPTSSSTSFMSSSSSSSSWLTRRAIRPENRAPGAGLGQDRQVPLWGQLLLFLVFVIVLFFIYHFMQAEEGNPF
partner: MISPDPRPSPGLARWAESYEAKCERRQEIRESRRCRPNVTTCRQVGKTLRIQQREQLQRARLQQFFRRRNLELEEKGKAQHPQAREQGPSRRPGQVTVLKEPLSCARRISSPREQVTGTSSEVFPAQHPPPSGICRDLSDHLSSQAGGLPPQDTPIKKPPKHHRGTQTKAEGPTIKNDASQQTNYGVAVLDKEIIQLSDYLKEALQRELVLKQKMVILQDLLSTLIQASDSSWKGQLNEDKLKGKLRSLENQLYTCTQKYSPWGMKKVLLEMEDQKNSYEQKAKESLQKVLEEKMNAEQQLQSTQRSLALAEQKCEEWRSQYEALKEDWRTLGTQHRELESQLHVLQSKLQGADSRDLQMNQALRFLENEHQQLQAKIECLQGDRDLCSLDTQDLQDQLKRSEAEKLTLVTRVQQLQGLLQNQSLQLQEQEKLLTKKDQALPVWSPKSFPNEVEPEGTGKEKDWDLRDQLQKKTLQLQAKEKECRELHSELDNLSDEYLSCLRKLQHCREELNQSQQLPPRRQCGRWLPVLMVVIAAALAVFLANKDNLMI
B2: Alpha-sarcoglycan (Homo sapiens), Q16586 (parent)
chain: MAETLFWTPLLVVLLAGLGDTEAQQTTLHPLVGRVFVHTLDHETFLSLPEHVAVPPAVHITYHAHLQGHPDLPRWLRYTQRSPHHPGFLYGSATPEDRGLQVIEVTAYNRDSFDTTRQRLVLEIGDPEGPLLPYQAEFLVRSHDAEEVLPSTPASRFLSALGGLWEPGELQLLNVTSALDRGGRVPLPIEGRKEGVYIKVGSASPFSTCLKMVASPDSHARCAQGQPPLLSCYDTLAPHFRVDWCNVTLVDKSVPEPADEVPTPGDGILEHDPFFCPPTEAPDRDFLVDALVTLLVPLLVALLLTLLLAYVMCCRREGRLKRDLATSDIQMVHHCTIHGNTEELRQMAASREVPRPLSTLPMFNVHTGERLPPRVDSAQVPLILDQH
B3: ATP synthase mitochondrial F1 complex assembly factor 2 (Homo sapiens), Q8N5M1 (parent)
chain: MWRSCLRLRDGGRRLLNRPAGGPSASMSPGPTIPSPARAYAPPTERKRFYQNVSITQGEGGFEINLDHRKLKTPQAKLFTVPSEALAIAVATEWDSQQDTIKYYTMHLTTLCNTSLDNPTQRNKDQLIRAAVKFLDTDTICYRVEEPETLVELQRNEWDPIIEWAEKRYGVEISSSTSIMGPSIPAKTREVLVSHLASYNTWALQGIEFVAAQLKSMVLTLGLIDLRLTVEQAVLLSRLEEEYQIQKWGNIEWAHDYELQELRARTAAGTLFIHLCSESTTVKHKLLKE
partner: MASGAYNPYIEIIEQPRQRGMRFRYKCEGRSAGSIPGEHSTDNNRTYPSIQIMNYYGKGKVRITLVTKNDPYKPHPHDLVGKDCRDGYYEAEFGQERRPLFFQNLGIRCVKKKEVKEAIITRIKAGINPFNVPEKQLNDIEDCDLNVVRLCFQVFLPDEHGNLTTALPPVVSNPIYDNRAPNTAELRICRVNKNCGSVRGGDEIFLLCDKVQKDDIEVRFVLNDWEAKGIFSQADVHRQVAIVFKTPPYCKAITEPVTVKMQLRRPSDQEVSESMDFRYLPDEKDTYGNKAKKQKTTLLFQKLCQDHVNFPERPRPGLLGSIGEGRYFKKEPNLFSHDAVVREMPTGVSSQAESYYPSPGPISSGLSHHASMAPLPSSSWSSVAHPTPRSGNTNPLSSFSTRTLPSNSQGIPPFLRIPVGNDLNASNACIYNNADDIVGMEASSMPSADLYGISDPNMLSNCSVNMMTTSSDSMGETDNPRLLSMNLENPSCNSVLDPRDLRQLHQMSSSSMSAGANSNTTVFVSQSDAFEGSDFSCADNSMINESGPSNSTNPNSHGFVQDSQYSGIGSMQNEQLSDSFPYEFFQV
B4: Keratin, type II cytoskeletal 2 epidermal (Homo sapiens), P35908 (parent)
chain: MSCQISCKSRGRGGGGGGFRGFSSGSAVVSGGSRRSTSSFSCLSRHGGGGGGFGGGGFGSRSLVGLGGTKSISISVAGGGGGFGAAGGFGGRGGGFGGGSSFGGGSGFSGGGFGGGGFGGGRFGGFGGPGGVGGLGGPGGFGPGGYPGGIHEVSVNQSLLQPLNVKVDPEIQNVKAQEREQIKTLNNKFASFIDKVRFLEQQNQVLQTKWELLQQMNVGTRPINLEPIFQGYIDSLKRYLDGLTAERTSQNSELNNMQDLVEDYKKKYEDEINKRTAAENDFVTLKKDVDNAYMIKVELQSKVDLLNQEIEFLKVLYDAEISQIHQSVTDTNVILSMDNSRNLDLDSIIAEVKAQYEEIAQRSKEEAEALYHSKYEELQVTVGRHGDSLKEIKIEISELNRVIQRLQGEIAHVKKQCKNVQDAIADAEQRGEHALKDARNKLNDLEEALQQAKEDLARLLRDYQELMNVKLALDVEIATYRKLLEGEECRMSGDLSSNVTVSVTSSTISSNVASKAAFGGSGGRGSSSGGGYSSGSSSYGSGGRQSGSRGGSGGGGSISGGGYGSGGGSGGRYGSGGGSKGGSISGGGYGSGGGKHSSGGGSRGGSSSGGGYGSGGGGSSSVKGSSGEAFGSSVTFSFR
partner: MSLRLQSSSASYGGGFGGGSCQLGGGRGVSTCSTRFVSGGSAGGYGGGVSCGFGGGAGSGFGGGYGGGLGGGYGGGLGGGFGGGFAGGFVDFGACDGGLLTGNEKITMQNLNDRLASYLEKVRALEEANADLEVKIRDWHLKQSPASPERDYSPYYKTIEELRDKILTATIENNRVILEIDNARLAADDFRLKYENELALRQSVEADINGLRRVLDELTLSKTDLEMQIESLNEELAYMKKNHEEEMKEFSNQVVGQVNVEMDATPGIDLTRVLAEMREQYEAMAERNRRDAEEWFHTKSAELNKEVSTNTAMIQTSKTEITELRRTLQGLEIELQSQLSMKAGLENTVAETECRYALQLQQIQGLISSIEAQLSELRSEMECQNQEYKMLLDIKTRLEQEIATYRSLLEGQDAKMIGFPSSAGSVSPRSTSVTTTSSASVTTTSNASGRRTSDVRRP
B5: Inactive peptidyl-prolyl cis-trans isomerase FKBP6 (Homo sapiens), O75344 (parent)
chain: MGGSALNQGVLEGDDAPGQSLYERLSQRMLDISGDRGVLKDVIREGAGDLVAPDASVLVKYSGYLEHMDRPFDSNYFRKTPRLMKLGEDITLWGMELGLLSMRRGELARFLFKPNYAYGTLGCPPLIPPNTTVLFEIELLDFLDCAESDKFCALSAEQQDQFPLQKVLKVAATEREFGNYLFRQNRFYDAKVRYKRALLLLRRRSAPPEEQHLVEAAKLPVLLNLSFTYLKLDRPTIALCYGEQALIIDQKNAKALFRCGQACLLLTEYQKARDFLVRAQKEQPFNHDINNELKKLASCYRDYVDKEKEMWHRMFAPCGDGSTAGES
B6: 60 kDa heat shock protein, mitochondrial (Homo sapiens), P10809 (parent)
chain: MLRLPTVFRQMRPVSRVLAPHLTRAYAKDVKFGADARALMLQGVDLLADAVAVTMGPKGRTVIIEQSWGSPKVTKDGVTVAKSIDLKDKYKNIGAKLVQDVANNTNEEAGDGTTTATVLARSIAKEGFEKISKGANPVEIRRGVMLAVDAVIAELKKQSKPVTTPEEIAQVATISANGDKEIGNIISDAMKKVGRKGVITVKDGKTLNDELEIIEGMKFDRGYISPYFINTSKGQKCEFQDAYVLLSEKKISSIQSIVPALEIANAHRKPLVIIAEDVDGEALSTLVLNRLKVGLQVVAVKAPGFGDNRKNQLKDMAIATGGAVFGEEGLTLNLEDVQPHDLGKVGEVIVTKDDAMLLKGKGDKAQIEKRIQEIIEQLDVTTSEYEKEKLNERLAKLSDGVAVLKVGGTSDVEVNEKKDRVTDALNATRAAVEEGIVLGGGCALLRCIPALDSLTPANEDQKIGIEIIKRTLKIPAMTIAKNAGVEGSLIVEKIMQSSSEVGYDAMAGDFVNMVEKGIIDPTKVVRTALLDAAGVASLLTTAEVVVTEIPKEEKDPGMGAMGGMGGGMGGGMF
B7: Tribbles homolog 3 (Homo sapiens), Q96RU7 (parent)
chain: MRATPLAAPAGSLSRKKRLELDDNLDTERPVQKRARSGPQPRLPPCLLPLSPPTAPDRATAVATASRLGPYVLLEPEEGGRAYQALHCPTGTEYTCKVYPVQEALAVLEPYARLPPHKHVARPTEVLAGTQLLYAFFTRTHGDMHSLVRSRHRIPEPEAAVLFRQMATALAHCHQHGLVLRDLKLCRFVFADRERKKLVLENLEDSCVLTGPDDSLWDKHACPAYVGPEILSSRASYSGKAADVWSLGVALFTMLAGHYPFQDSEPVLLFGKIRRGAYALPAGLSAPARCLVRCLLRREPAERLTATGILLHPWLRQDPMPLAPTRSHLWEAAQVVPDGLGLDEAREEEGDREVVLYG
B8: U4/U6 small nuclear ribonucleoprotein Prp31 (Homo sapiens), Q8WWY3 (parent)
chain: MSLADELLADLEEAAEEEEGGSYGEEEEEPAIEDVQEETQLDLSGDSVKTIAKLWDSKMFAEIMMKIEEYISKQAKASEVMGPVEAAPEYRVIVDANNLTVEIENELNIIHKFIRDKYSKRFPELESLVPNALDYIRTVKELGNSLDKCKNNENLQQILTNATIMVVSVTASTTQGQQLSEEELERLEEACDMALELNASKHRIYEYVESRMSFIAPNLSIIIGASTAAKIMGVAGGLTNLSKMPACNIMLLGAQRKTLSGFSSTSVLPHTGYIYHSDIVQSLPPDLRRKAARLVAAKCTLAARVDSFHESTEGKVGYELKDEIERKFDKWQEPPPVKQVKPLPAPLDGQRKKRGGRRYRKMKERLGLTEIRKQANRMSFGEIEEDAYQEDLGFSLGHLGKSGSGRVRQTQVNEATKARISKTLQRTLQKQSVVYGGKSTIRDRSSGTASSVAFTPLQGLEIVNPQAAEKKVAEANQKYFSSMAEFLKVKGEKSGLMST
partner: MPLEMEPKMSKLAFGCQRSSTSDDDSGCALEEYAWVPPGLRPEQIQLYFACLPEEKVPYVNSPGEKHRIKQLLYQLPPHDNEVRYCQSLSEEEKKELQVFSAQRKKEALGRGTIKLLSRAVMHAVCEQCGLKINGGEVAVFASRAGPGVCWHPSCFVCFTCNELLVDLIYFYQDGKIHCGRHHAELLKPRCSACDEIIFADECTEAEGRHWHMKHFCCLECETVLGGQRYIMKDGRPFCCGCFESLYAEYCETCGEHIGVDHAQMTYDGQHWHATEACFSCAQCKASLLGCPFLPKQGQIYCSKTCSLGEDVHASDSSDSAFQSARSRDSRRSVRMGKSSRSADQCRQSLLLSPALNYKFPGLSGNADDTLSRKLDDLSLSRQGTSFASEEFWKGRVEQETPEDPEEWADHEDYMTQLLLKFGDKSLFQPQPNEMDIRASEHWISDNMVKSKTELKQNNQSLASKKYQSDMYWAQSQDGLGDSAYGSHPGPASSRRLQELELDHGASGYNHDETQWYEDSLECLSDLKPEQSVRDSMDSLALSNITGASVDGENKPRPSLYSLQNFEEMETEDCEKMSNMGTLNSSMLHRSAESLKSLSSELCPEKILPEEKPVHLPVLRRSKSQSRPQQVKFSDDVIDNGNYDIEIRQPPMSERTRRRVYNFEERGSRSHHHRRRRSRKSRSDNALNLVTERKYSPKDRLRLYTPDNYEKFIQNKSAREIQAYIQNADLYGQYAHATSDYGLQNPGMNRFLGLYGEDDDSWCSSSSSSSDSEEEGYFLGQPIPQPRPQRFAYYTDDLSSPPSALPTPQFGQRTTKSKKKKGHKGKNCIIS

Variants of: B1
Settings: with TRAF3IP3, Q9Y228

Row | effect of a mutation on the interaction | Variant
1 | with no effect | P183T
2 | with no effect | S54F

Variants of: B2
Settings: with sgta_human SGTA

Row | effect of a mutation on the interaction | Variant
3 | with no effect | T208I
4 | with no effect | M312R
5 | with no effect | R98H

Variants of: B3
Settings: with REL

Row | effect of a mutation on the interaction | Variant
6 | disrupting interaction strength | W94R

Variants of: B4
Settings: with KRT13, P13646

Row | Variant | effect of a mutation on the interaction
7 | G219D | with no effect
8 | L484P | with no effect

More lines, now with the values ahead:

Row | effect of a mutation on the interaction | Variant
9 | with no effect | N186K
10 | disrupting interaction strength | I477N

Variants of: B5
Settings: with lzts2_human LZTS2, Q9BRK4
Target sequence in this assay (Q9BRK4 whole entry): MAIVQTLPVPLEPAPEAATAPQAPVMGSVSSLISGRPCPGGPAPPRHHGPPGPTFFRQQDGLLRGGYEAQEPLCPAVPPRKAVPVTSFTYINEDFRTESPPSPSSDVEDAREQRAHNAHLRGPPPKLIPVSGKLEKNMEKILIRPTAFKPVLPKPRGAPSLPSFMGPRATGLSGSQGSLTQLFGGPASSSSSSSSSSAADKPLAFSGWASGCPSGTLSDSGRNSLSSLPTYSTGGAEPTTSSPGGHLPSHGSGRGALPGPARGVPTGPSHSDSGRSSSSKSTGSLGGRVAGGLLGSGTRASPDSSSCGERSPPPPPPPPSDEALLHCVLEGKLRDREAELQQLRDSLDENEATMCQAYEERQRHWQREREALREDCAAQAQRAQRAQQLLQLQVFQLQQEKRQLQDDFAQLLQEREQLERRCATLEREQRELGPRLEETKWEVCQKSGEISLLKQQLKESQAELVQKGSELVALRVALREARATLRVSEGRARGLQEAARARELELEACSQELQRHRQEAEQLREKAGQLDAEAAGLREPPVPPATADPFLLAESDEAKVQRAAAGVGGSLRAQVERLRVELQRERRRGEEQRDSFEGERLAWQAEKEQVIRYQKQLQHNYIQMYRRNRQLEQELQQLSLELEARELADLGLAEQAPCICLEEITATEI

Row | effect of a mutation on the interaction | Variant
11 | with no effect | R202H
12 | disrupting interaction strength | F72L

Variants of: B5
Settings: with meox2_human MEOX2, P50222
Sequence of meox2_human MEOX2, P50222 (P50222 whole entry): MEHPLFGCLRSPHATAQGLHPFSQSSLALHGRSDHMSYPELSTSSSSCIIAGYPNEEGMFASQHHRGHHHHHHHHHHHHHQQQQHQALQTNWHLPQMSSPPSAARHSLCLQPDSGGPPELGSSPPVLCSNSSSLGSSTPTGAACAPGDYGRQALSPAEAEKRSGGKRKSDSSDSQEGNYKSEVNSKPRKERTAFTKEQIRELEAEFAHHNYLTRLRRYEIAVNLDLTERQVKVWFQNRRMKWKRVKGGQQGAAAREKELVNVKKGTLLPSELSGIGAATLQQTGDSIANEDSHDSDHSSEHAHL

Row | effect of a mutation on the interaction | Variant
13 | with no effect | R202H
14 | disrupting interaction strength | F72L

Variants of: B6
Settings: with lzts2_human LZTS2, Q9BRK4
Target sequence in this assay (Q9BRK4 whole entry): as the sequence (Q9BRK4 whole entry) above

Row | effect of a mutation on the interaction | Variant
15 | disrupting interaction strength | D29G
16 | with no effect | V98I
17 | with no effect | Q461E

Variants of: B7
Settings: with atf4_human ATF4, P18848
Sequence of atf4_human ATF4, P18848 (P18848 whole entry): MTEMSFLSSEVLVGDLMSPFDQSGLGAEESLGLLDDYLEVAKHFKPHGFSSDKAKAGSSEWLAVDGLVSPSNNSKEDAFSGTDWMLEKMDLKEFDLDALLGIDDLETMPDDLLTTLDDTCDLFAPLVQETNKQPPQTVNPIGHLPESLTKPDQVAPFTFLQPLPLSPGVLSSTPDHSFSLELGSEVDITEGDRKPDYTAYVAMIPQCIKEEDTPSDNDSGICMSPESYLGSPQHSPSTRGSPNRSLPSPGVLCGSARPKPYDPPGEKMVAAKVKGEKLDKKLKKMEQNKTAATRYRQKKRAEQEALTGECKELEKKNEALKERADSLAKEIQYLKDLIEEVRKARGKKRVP

Row | effect of a mutation on the interaction | Variant
18 | with no effect | Q84R

Variants of: B7
Settings: with mdfi_human MDFI

Row | effect of a mutation on the interaction | Variant
19 | with no effect | Q84R

Variants of: B8
Settings: with pric1_human PRICKLE1, Q96MT3

Row | effect of a mutation on the interaction | Variant
20 | with no effect | L107V
